Experimental data as given in the supplement of paper PMC12042874.
± gives the uncertainty stated by the source.

Assay: amyloid nucleation score (Sup35N fusion, yeast selection) (log enrichment); library NNK3; higher = more nucleation; inactive = no reads after selection
Outline: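 On medium lacking adenine and uracil, psi-negative yeast expressing peptides of 20 random codons fused to Sup35N were grown 7 days at 30°C after a 24-hour induction with 100 μM copper sulfate. Illumina sequencing of input and output plasmid inserts gave the reads, and sequences under 100 input reads were excluded. The nucleation score is the DiMSum log enrichment of output over input reads, centred on the mode score of non-aggregating sequences.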

SYSSGSSNNKS
amyloid nucleation score: inactive

YKLKLIKEFCIGIRC
amyloid nucleation score: inactive

SRAAPRFRSIP
amyloid nucleation score: inactive

HDKAVQEVGQGCGE
amyloid nucleation score: 1.34 ± 0.11

LGRCRWMDPHILLVLHVPCE
amyloid nucleation score: inactive

LMPSDFISSYNSLYDGCLGG
amyloid nucleation score: inactive

FLHDFSILIGMICNQIGITL
amyloid nucleation score: 1.24 ± 0.17

VASTVSRVAKDTKAKVAYR
amyloid nucleation score: inactive

KEAPIWRKKGQNLLLPVSGW
amyloid nucleation score: inactive

FFSCYVESNSVMGKDFCRVM
amyloid nucleation score: 0.788 ± 0.12

DLSVYYVLLFVCDGL
amyloid nucleation score: -1.35 ± 1.8

AITHL
amyloid nucleation score: inactive

CSVGS
amyloid nucleation score: inactive

FPSSMGRQYIGVCKYLSDPP
amyloid nucleation score: inactive

ICTLCNVSRLLWSPRDKNAF
amyloid nucleation score: 2.93 ± 0.063

ICNFHSSRPLNIS
amyloid nucleation score: inactive

TFLYTFWVLMACSELV
amyloid nucleation score: inactive

LSINTQTS
amyloid nucleation score: inactive

CKILHDRHMYVCLFAYCFVC
amyloid nucleation score: inactive

FTYWLFSLDR
amyloid nucleation score: inactive

MINSCFK
amyloid nucleation score: inactive

HKSVLFNTRSSCRTSVLIVR
amyloid nucleation score: inactive

KTLYTDSS
amyloid nucleation score: 0.114 ± 0.58

SRYHLDFRYYSINKSLMSGV
amyloid nucleation score: inactive

LVMNNRYLYSRFLLLV
amyloid nucleation score: -0.619 ± 0.73

NGFVI
amyloid nucleation score: inactive

SGLWHRILCSGRPTGYTQWV
amyloid nucleation score: inactive

WAPLQALSFGK
amyloid nucleation score: inactive

TSRLFHKFLGYAPSRTNSSL
amyloid nucleation score: inactive

FNLLHTRMTLLYSNIRNRYN
amyloid nucleation score: 0.358 ± 0.62

LMSTYVTFFRSCKPSSCVFV
amyloid nucleation score: inactive

YSVFGVNKQMAFAVCDWHHC
amyloid nucleation score: 0.477 ± 0.17

SSWDGLKRL
amyloid nucleation score: inactive

KLDLQSSFLFLGSVHV
amyloid nucleation score: inactive

RCLAPGCRIVNRFLSINYKS
amyloid nucleation score: inactive

TIEIGSLYTITM
amyloid nucleation score: -0.251 ± 0.45

TFCGFKP
amyloid nucleation score: inactive

SRRSLNGIN
amyloid nucleation score: -0.05 ± 0.3

CWSSIYSNDQDFYWKSPLLS
amyloid nucleation score: inactive

NDRVIRVGVN
amyloid nucleation score: inactive

LFFSRS
amyloid nucleation score: inactive

YNNCYRCEN
amyloid nucleation score: inactive

IYYPIMCAAVAYLLSSRFRC
amyloid nucleation score: inactive

YCGKCRAFCCQSCPIRVRLV
amyloid nucleation score: inactive

KWNRLLVMRLAVIECRARVA
amyloid nucleation score: 0.033 ± 0.9

MMTCF
amyloid nucleation score: inactive

YRRYWLSGRSFRADFIDNKT
amyloid nucleation score: inactive

VGSRAGYMRQLSVSACTRVL
amyloid nucleation score: inactive

LGKGICKSTWLQQCRGKSDF
amyloid nucleation score: inactive

TGTFDRWDPVTAGLPTGLGE
amyloid nucleation score: inactive

GSSAPKWVWNWFVPYGKRQG
amyloid nucleation score: 1.3 ± 0.089

YFGSV
amyloid nucleation score: inactive

SGSGWKICRNSHAGAVFYSR
amyloid nucleation score: inactive

FSIDTNGSCYRIDARHVK
amyloid nucleation score: inactive

QSPRDTSPDLRTYCLVA
amyloid nucleation score: inactive

MCRLDA
amyloid nucleation score: 2.38 ± 0.073

VYTRSGHV
amyloid nucleation score: -0.112 ± 1.3

GNNPLVVKNLNRKCL
amyloid nucleation score: -0.357 ± 0.51

ISQGFGCEFVFWFEEGKFFH
amyloid nucleation score: inactive

LPMQYKLLSVFVADFFTIFV
amyloid nucleation score: -1.07 ± 1.7

FNRGLLNHFFGH
amyloid nucleation score: inactive

ISWVRFRAVFWMRMFEAH
amyloid nucleation score: -0.441 ± 1.4

LVVRNVEVPIHR
amyloid nucleation score: inactive

LCTLSCFAICD
amyloid nucleation score: 0.74 ± 0.18

VFDDY
amyloid nucleation score: inactive

VSFELYMHFSSFSYFGMLKG
amyloid nucleation score: 1.16 ± 0.13

VWSVHSHTQPMHSWSVRSAG
amyloid nucleation score: inactive

TLAIGLIDEFRLHA
amyloid nucleation score: 1.09 ± 0.13

MRWMGDGMRSTNSSVNSHGL
amyloid nucleation score: inactive

EGVTII
amyloid nucleation score: inactive

RKSHD
amyloid nucleation score: inactive

VSWLCSMKDICPHCDEINYR
amyloid nucleation score: 1.8 ± 0.062

IFNMSQYNKLECTLTLY
amyloid nucleation score: inactive

TGQLSSQPIIQISREPIAFT
amyloid nucleation score: inactive

ILNRLCRDLYVAFTSSAACR
amyloid nucleation score: inactive

TILGDFVFVFILKVCFTYHR
amyloid nucleation score: -0.806 ± 1.3

SLVAYLIEGIFNLWEALMDR
amyloid nucleation score: inactive

VDSSMDLHSIS
amyloid nucleation score: inactive

LTIAIWVMYKDQYFCLWHLL
amyloid nucleation score: inactive

SRLEGIAGVKKGVMVNQKRL
amyloid nucleation score: inactive

NLMWL
amyloid nucleation score: inactive

CQGIMDRRTSKRMPIANMVQ
amyloid nucleation score: inactive

HDESQVVLCRYCCSDVRLTH
amyloid nucleation score: inactive

TNPTVYWDRGMVGCKKLRAH
amyloid nucleation score: inactive

FNDNVFIGRYVRTSYCLNLR
amyloid nucleation score: 1.72 ± 0.064

ICPIMNCVFFHRTDQSLSFN
amyloid nucleation score: 2.29 ± 0.05

DSDYGNVVWRFYRSYGCTGL
amyloid nucleation score: inactive

MMNILILCVKGMHFGRHKYV
amyloid nucleation score: inactive

CNHVLTNRLMHSSKNRCLFI
amyloid nucleation score: inactive

LNKVIRCEAYRCKTMN
amyloid nucleation score: inactive

CPMVLSQEGSTAPEQCVGLG
amyloid nucleation score: inactive

FPRNVPG
amyloid nucleation score: inactive

IENRFVSFLYL
amyloid nucleation score: 1.88 ± 0.075

KMSLGLRCYSAYKEPLVQGE
amyloid nucleation score: -0.055 ± 1.1

RNWLYLFVRRLISWLNKWGK
amyloid nucleation score: inactive

EVKGTCWVCVLVHVATSYVG
amyloid nucleation score: 0.65 ± 0.21

GSATSFAFFIVFLSD
amyloid nucleation score: 1.51 ± 0.096

DPFRLLGEY
amyloid nucleation score: inactive

HFGQCSVMMCDAWGMSDQGP
amyloid nucleation score: inactive

RSMQFGVIYAYYHRMAG
amyloid nucleation score: inactive

IMTVSLGGRNSDSDNLSCLD
amyloid nucleation score: inactive

IYTSGWINYSIARFACCIRW
amyloid nucleation score: inactive

RFYKRICLLYPTRSEGESGF
amyloid nucleation score: inactive

FLCTLSMWYCIDRTFMYMCS
amyloid nucleation score: -0.053 ± 0.32

CVRYWKLGVVLRDG
amyloid nucleation score: inactive

YVMNHTLGAILNAFRGI
amyloid nucleation score: 1.04 ± 0.17

FRTTLKTR
amyloid nucleation score: inactive

LQTFDYQRVWNKCLSEFSLE
amyloid nucleation score: inactive

GCNNVH
amyloid nucleation score: inactive

PGYSFKVSA
amyloid nucleation score: -1.06 ± 2.5

GVTLFSVVQTFLVSTLCKIE
amyloid nucleation score: inactive

SIISMDKDRTLAHTDHQV
amyloid nucleation score: inactive

AEQCEPLWCFWKKRSL
amyloid nucleation score: 0.792 ± 0.18

PGVYKNVAFLR
amyloid nucleation score: inactive

VKEPPTCVTCSAHSIRSGYS
amyloid nucleation score: inactive

VKCQRRH
amyloid nucleation score: inactive

NSKSVSWMFMPLQAFLCLIG
amyloid nucleation score: inactive

NVTCGRLTPSRDLKHAPVI
amyloid nucleation score: -0.32 ± 1.1

PRQRLMMWSRRG
amyloid nucleation score: inactive

SCRLLNFIICIGWVWGFDVS
amyloid nucleation score: inactive

APLEFLSSLDWIRPELALTF
amyloid nucleation score: inactive

FVNISHMY
amyloid nucleation score: inactive

LFMINLDPASMVHMTPCFTN
amyloid nucleation score: inactive

YTFNVNITPFTMYHSFIYFS
amyloid nucleation score: 3.08 ± 0.051

VEQLTEDKRWRSACKQRRKV
amyloid nucleation score: inactive

VSACIWRKLPVFVYSVSAGS
amyloid nucleation score: inactive

VRQHCQMLMILFLYPLACGS
amyloid nucleation score: inactive

KEFAIESTVLFYTVLLKAAH
amyloid nucleation score: inactive

CANNYGGMLRECQVSGYSCM
amyloid nucleation score: inactive

HMTGARRN
amyloid nucleation score: inactive

QFSMLMVVLCP
amyloid nucleation score: inactive

FECYRSSLGQWVMLDVSIHW
amyloid nucleation score: -0.534 ± 0.87

FVIVSL
amyloid nucleation score: 1.6 ± 0.069

RGSCRLVNLEPCRIM
amyloid nucleation score: inactive

RTSYLVLMKCYSALDYGVIA
amyloid nucleation score: inactive

FDKGFLMTLNTLAVLSNQE
amyloid nucleation score: inactive

FLYMSMPSLSMVQICYSQRG
amyloid nucleation score: 1.99 ± 0.07

QNVFWIVSGTSEWGSALVFG
amyloid nucleation score: inactive

SYGPRPYTHHSPHAAGMTLE
amyloid nucleation score: inactive

PREWLGVLLMTVLNFWMTVV
amyloid nucleation score: inactive

EGSIQMWTGTSLLDTRIWGG
amyloid nucleation score: inactive

SCVGVRVLCSAVV
amyloid nucleation score: inactive

WVHFYDTMGDM
amyloid nucleation score: inactive

QQHDELCGVHMGSGHF
amyloid nucleation score: inactive

TEYVMSQNHLKQW
amyloid nucleation score: inactive

SSFGTQLYWNMSKCRFTRGT
amyloid nucleation score: 1.16 ± 0.16

PSLCFSAVQLRLPRDVFLKY
amyloid nucleation score: inactive

FVEAANNSFCYESSNIT
amyloid nucleation score: inactive

SIMLFWVTGRLLRLSLLMLL
amyloid nucleation score: 0.45 ± 0.21

TITLFSSWGSV
amyloid nucleation score: 0.612 ± 0.22

NAYSKNVFQHVGMHTWSWYL
amyloid nucleation score: inactive

GVLREEL
amyloid nucleation score: inactive

LLTMHWVREWSDGLYCKGKL
amyloid nucleation score: inactive

FQKGLRQDYQVFLFDSNRFW
amyloid nucleation score: inactive

CFFSRFILYPSLTLYMTMLR
amyloid nucleation score: inactive

WVYDSTIRHHH
amyloid nucleation score: inactive

VYDDSTIDT
amyloid nucleation score: inactive

RVFEVEKLVEIGGTMLHESN
amyloid nucleation score: inactive

LLVCSWC
amyloid nucleation score: 2.1 ± 0.093

FGMGKRLSNENMPLVSCTGL
amyloid nucleation score: inactive

YSNYCGQFSIVPIVFFYIVI
amyloid nucleation score: 1.1 ± 0.15

VDNSERLSLHPSVHMGDMGF
amyloid nucleation score: inactive
